Data: paper doi:10.1101/2020.08.14.246132 (bioRxiv, 2020)

Target: DPP9, short isoform (His-TEV-DPP9), co-expressed with NLRP1ΔΔ for cryo-EM (human, UniProt Q86TI2-1 1-863)
Assay: cryo-EM structure

Sequence of DPP9, short isoform (His-TEV-DPP9), co-expressed with NLRP1ΔΔ for cryo-EM (Q86TI2 whole entry, stated change not applied, canonical isoform): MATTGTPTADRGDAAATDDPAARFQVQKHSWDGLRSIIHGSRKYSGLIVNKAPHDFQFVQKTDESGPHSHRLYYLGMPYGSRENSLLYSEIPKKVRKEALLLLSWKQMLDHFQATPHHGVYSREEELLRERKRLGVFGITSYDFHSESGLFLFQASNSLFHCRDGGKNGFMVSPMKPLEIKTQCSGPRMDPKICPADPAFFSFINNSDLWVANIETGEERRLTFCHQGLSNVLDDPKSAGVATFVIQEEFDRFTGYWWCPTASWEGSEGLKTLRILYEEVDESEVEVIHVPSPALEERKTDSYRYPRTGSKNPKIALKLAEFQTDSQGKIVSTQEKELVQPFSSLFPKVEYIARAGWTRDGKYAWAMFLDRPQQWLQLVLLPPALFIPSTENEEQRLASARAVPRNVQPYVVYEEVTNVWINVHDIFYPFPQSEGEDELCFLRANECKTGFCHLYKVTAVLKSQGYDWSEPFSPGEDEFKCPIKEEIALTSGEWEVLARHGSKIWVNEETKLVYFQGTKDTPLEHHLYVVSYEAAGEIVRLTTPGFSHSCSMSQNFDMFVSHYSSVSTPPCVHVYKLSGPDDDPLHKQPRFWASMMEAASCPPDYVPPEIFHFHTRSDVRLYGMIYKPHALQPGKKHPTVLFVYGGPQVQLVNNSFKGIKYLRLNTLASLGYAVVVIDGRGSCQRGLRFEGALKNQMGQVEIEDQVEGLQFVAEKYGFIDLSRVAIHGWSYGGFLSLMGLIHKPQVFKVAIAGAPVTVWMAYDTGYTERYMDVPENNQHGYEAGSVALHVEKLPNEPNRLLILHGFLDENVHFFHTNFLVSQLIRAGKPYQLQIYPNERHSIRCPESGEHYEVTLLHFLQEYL

binding result: binds
B1: NLRP1-CT freed from NLRP1ΔΔ (UPA subdomain only), molecule B of the NLRP1^A-NLRP1^B-DPP9 ternary complex (domain or fragment, human, UniProt Q9C000-1 1213-1364, looked up)
chain: SPLGVLLKMIHNALRFIPVTSVVLLYHRVHPEEVTFHLYLIPSDCSIRKAIDDLEMKFQFVRIHKPPPLTPLYMGCRYTVSGSGSGMLEILPKELELCYRSPGEDQLFSEFYVGHLGSGIRLQVKDKKDETLVWEALVKPGDLMPATTLIPP
